Molecular target: GST protein (free GST, cleaved from GST-tagged proteins)
Experiment: SAXS

Substance: GST protein (free GST, cleaved from GST-tagged proteins) (enzyme)
- stoichiometry N: 2

From publication doi:10.1101/2022.05.20.492803
